Laboratory results as given in publication doi:10.1101/2023.08.28.555152.
Read-outs that look alike come from different tables or passages of the source.

Experiments:
Assay in all cases: MST
[1] = biological target: FITC-labeled IST1 (recombinant full-length IST1)
[2] = biological target: FITC-labeled IST1 (recombinant full-length IST1); remark: listed apart in the source
[3] = biological target: FITC-labeled IST1 (recombinant full-length IST1); remark: listed apart in the source

B1: CHMP1B (recombinant full length) (natural protein)
chain: MSNMEKHLFNLKFAAKELSRSAKKCDKEEKAEKAKIKKAIQKGNMEVARIHAENAIRQKNQAVNFLRMSARVDAVAARVQTAVTMGKVTKSMAGVVKSMDATLKTMNLEKISALMDKFEHQFETLDVQTQQMEDTMSSTTTLTTPQNQVDMLLQEMADEAGLDLNMELPQGQTGSVGTSVASAEQDELSQRLARLRDQV
Question: What does the source list for B1?
Answer: Kd [1]: 9 µM; Kd [2]: 20.3 µM; Kd [3]: 153 µM
